From patent publication US20160009770A1 (LAWRENCE BERKELEY NATIONAL LABORATORY, published 2016)
Side chains are listed from the residue outwards. Ends that are not written are not given here. dC16 = not defined here

Biological target: the molecule itself
Test: UV-vis heme titration; reports an intact 4-helix bundle (self-association)

B1: dC16-BB-P2K conjugate 8 (designed binder)
peptide: dC16-GGGEIWKLHEEFLC([maleimide-PEG 2000 Da])KFEELLKLHEERLKKM
modifications: reading uncertain
notes: also called BB-dC16-P2K; H10H24-dC16-PEG2K
binding result: binds
